From patent US7105306 (University of Pennsylvania, dated 2006)

Molecular target: prolactin (PRL), human, untagged (serum PRL; PRL used in cell cultures) (human, UniProt P01229)
Test: cell-based or functional assay

B1: His-tagged cyclophilin B (CypB), recombinant, purified from Drosophila S2 cells (enzyme, not shown: small tags and cut ends)
chain: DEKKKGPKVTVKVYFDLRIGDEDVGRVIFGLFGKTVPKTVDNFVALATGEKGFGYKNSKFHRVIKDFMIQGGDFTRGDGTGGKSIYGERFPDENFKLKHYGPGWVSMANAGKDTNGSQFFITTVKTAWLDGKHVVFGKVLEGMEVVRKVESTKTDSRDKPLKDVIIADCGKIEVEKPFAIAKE
  PRL-driven growth of Nb2 cells (3H-thymidine): ≤ 8 fold
